Source: US20220106391A1 (ZOETIS SERVICES, published 2022)

T1: feline NGF (feline)
T1 chain: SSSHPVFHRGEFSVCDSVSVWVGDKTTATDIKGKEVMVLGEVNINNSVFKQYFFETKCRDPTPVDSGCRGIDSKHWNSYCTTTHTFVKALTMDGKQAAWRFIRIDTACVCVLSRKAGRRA

T2: canine beta-NGF (cNGF) (canine, UniProt Q29074 110-229 (pig entry))
T2 construct: also called canine NGF; can NGF
T2 chain: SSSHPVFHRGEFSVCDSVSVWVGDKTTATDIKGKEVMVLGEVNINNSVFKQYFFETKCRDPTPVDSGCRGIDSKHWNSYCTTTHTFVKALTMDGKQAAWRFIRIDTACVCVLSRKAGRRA


Experiments:
NGF (species not stated) [1] = test: cell-based or functional assay
feline NGF = target: T1, feline NGF; test: SPR, Biacore 3000, feline NGF
Procedure: Affinities of selected felinized anti-NGF antibody to feline NGF were measured using SPR (Surface Plasmon Resonance), Biacore 3000. Kinetics of association and dissociation of a felinized mAb with/from feline NGF were measured at different concentrations.

canine beta-NGF (cNGF) [2] = target: T2, canine beta-NGF (cNGF); test: SPR (Biacore), KD column of Table 3
canine beta-NGF (cNGF) [3] = target: T2, canine beta-NGF (cNGF); test: SPR (Biacore)
canine beta-NGF (cNGF) [4] = target: T2, canine beta-NGF (cNGF); test: SPR (Biacore), cNGF binding; KD column of Table 7
rat NGF = rat NGF (rat, UniProt P25427 122-241); test: cell-based or functional assay
canine beta-NGF (cNGF) [5] = target: T2, canine beta-NGF (cNGF); test: cell-based or functional assay
NGF (species not stated) [6] = test: cell-based or functional assay; remark: listed apart in the source

rat NGF, sequence (P25427 122-241 limits assumed): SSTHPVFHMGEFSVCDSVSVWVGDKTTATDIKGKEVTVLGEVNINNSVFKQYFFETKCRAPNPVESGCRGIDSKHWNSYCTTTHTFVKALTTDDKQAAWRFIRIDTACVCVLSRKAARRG

Binder	IC50 (nM) (pERK-1/2, cell line expressing human TrkA) (NGF (species not stated) [1])	Kd (feline NGF) [nM]	further results
mAb 1B (ZTS-082) (antibody, IgG1a, V domains shown, Felinized IgG with feline heavy and kappa constant regions; also called ZTS-082-1B; H1-23 / KPL) VH: DVQLVESGGDLVQPGGSLRLTCVASGFTLTQYGINWVRQAPGKGLQWVAVIWATGATDYNSALKSRFTISRDNAKNTLYLQMNSLKTEDTATYYCARDGWWYATSWYFDVWGQGALVTVSS VL: DIVMTQTPLSLSVTPGEPASISCKASQDINHYLNWYLQKPDGTVKLLIYYTSRLHSGVPSRFSGSGSGTDFTLRISRVEADDVGVYYCQQGDHFPRTFGPGT	1.28	0.00941	–
H1-23K643 (antibody, V domains shown, also called ZTS-082-2D) VH: DVQLVESGGDLVQPGGSLRLTCVASGFTLTQYGINWVRQAPGKGLQWVAVIWATGATDYNSALKSRFTISRDNAKNTLYLQMNSLKTEDTATYYCARDGWWYATSWYFDVWGQGALVTVSS VL: EIQMTQSPSSLSASPGDRVTITCKASQDINHYLNWYQQKPGKVPKLLIYYTSRLHSGVPSRFSGSGSGTDFTLTISSLEPEDAATYYCQQGDHFPRTFGGGT	1.48	0.177	–
H733KPL (antibody, V domains shown, also called ZTS-082-2E) VH: DVQLVESGGDLVKPGGSLRLTCVASGFTLTQYGINWVRQAPGKGLQWVAVIWATGATDYNSALKSRFTMSRDNARNTLYLQMNSLKTEDTATYYCARDGWWYATSWYFDVWGQGTLVTVSS VL: DIVMTQTPLSLSVTPGEPASISCKASQDINHYLNWYLQKPDGTVKLLIYYTSRLHSGVPSRFSGSGSGTDFTLRISRVEADDVGVYYCQQGDHFPRTFGPGT	1.34	0.000458	–
H733 L3-K36 (antibody, V domains shown, also called ZTS-082-361) VH: DVQLVESGGDLVKPGGSLRLTCVASGFTLTQYGINWVRQAPGKGLQWVAVIWATGATDYNSALKSRFTMSRDNARNTLYLQMNSLKTEDTATYYCARDGWWYATSWYFDVWGQGTLVTVSS VL: DIVMTQTPLSLPVTPGEPASISCKASQDINHYLNWYLQKPGQSPRLLIYYTSRLHSGVPSRFSGSGSGTDFTLRISSVEADDVGVYYCQQGDHFPRTFGQGT	1.13	0.000334	–
H1-23L3K36 (antibody, V domains shown, also called ZTS-082-1C) VH: DVQLVESGGDLVQPGGSLRLTCVASGFTLTQYGINWVRQAPGKGLQWVAVIWATGATDYNSALKSRFTISRDNAKNTLYLQMNSLKTEDTATYYCARDGWWYATSWYFDVWGQGALVTVSS VL: DIVMTQTPLSLPVTPGEPASISCKASQDINHYLNWYLQKPGQSPRLLIYYTSRLHSGVPSRFSGSGSGTDFTLRISSVEADDVGVYYCQQGDHFPRTFGQGT	1.3	0.916	–
H3AQC23L1A02D9L2 (antibody, V domains shown, Caninized IgG) VH: EVQLVESGGDLARPGGSLKLSCVVSGFTLTQYGINWVRQAPGKGLQWVTVIWATGATDYNSALKSRFTVSRDNAMNTVYLQMNSLRVEDTAVYYCARDGWWYATSWYFDVWGQGTLVTVSS VL: DIVMTQTPLSLSVSPGEPASISCRASQDISNYLNWFRQKPDGTVKLLIYKTNSLQTGVPSRFSGSGSGTDFTLRISRVEADDAGVYYCQQGSTLPRTFGQGT	–	–	binding result (canine beta-NGF (cNGF) [2]): no binding
H3AQC2301B12L1AL1L3 (ZTS-00103182) (antibody, V domains shown, Caninized IgG; 49 as printed runs on into CH1; the VL entry stops at FGQGT; also called ZTS-182; wt 182) VH: EVQLVESGGDLARPGGSLKLSCVVSGFTLTQYGINWVRQAPGKGLQWVTVIWATGATDYNSALKSRFTVSRDNAMNTVYLQMNSLRVEDTAVYYCARDGWWYATSWYFDVWGQGTLVTVSS VL: DIVMTQTPLSLSVSPGEPASISCKASQDINHYLNWFRQKPDGTVKLLIYYTSRLHSGVPSRFSGSGSGTDFTLRISRVEADDAGVYYCQQGDHFPRTFGQGT	–	–	Kd (canine beta-NGF (cNGF) [3]): 0.061 nM; Kd (canine beta-NGF (cNGF) [4]): 0.0027 nM; IC50 nM (inhibition of neurite outgrowth, PC12 cells, rat NGF 10 ng/ml) (rat NGF): 0.21 nM; IC50 µg/ml (inhibition of neurite outgrowth, PC12 cells, rat NGF 10 ng/ml) (rat NGF): 0.031 µg/mL; IC50 [nM] (TrkA cell based assay) (canine beta-NGF (cNGF) [5]): 1.26 nM; IC50 nM (TF-1 proliferation inhibition, NGF 2.0 ng/ml) (NGF (species not stated) [6]): 0.046 nM; IC50 µg/ml (TF-1 proliferation inhibition, NGF 2.0 ng/ml) (NGF (species not stated) [6]): 0.00693 µg/mL
